Laboratory results from the supplement of paper PMC5998384.

Tests used:
HeLa Kyoto [1] = experiment: solubility change mitosis vs G1/S (difference of NP-40 vs SDS log2 ratios) (log2 ratio difference); higher = more soluble in mitosis
HeLa Kyoto [2] = experiment: solubility in G1/S (NP-40 vs SDS abundance) (log2 ratio); higher = more soluble; settings: cell cycle stage: G1/S
HeLa Kyoto [3] = experiment: thermal stability score vs G1/S (z-score of summed log2 fold changes over temperatures); higher = more thermally stable than in G1/S
HeLa Kyoto [4] = experiment: melting temperature (median over replicates), in situ; higher = more thermally stable
[5] = cell cycle stage: early G1 (4.5 h after nocodazole release)
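Wherever melting temperature (median over replicates), in situ is given: HeLa Kyoto cells synchronized by double thymidine or nocodazole block, proteins quantified by TMT10plex mass spectrometry, three independent biological replicates.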
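Wherever solubility change mitosis vs G1/S (difference of NP-40 vs SDS log2 ratios) is given: synchronized HeLa Kyoto cells (double thymidine block for G1/S, nocodazole release for mitosis), protein amounts in NP-40 versus SDS lysates quantified by mass spectrometry, three biological replicates.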
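Wherever solubility in G1/S (NP-40 vs SDS abundance) is given: HeLa Kyoto cells arrested at G1/S by double thymidine block, proteins quantified by TMT10plex mass spectrometry in mild NP-40 versus SDS extracts, three biological replicates.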
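Wherever thermal stability score vs G1/S (z-score of summed log2 fold changes over temperatures) is given: synchronized HeLa Kyoto cells, proteins quantified by TMT10plex mass spectrometry, three biological replicates, mitosis taken 0.5 h after nocodazole release, G1/S directly after double thymidine block.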

MDYRRLLMSRVVPGQFDDADSSDSENRDLKTVKEKDDILFEDLQDNVNENGEGEIEDEEEEGYDDDDDDWDWDEGVGKLAKGYVWNGGSNPQANRQTSDSSSAKMSTPADKVLRKFENKINLDKLNVTDSVINKVTEKSRQKEADMYRIKDKADRATVEQVLDPRTRMILFKMLTRGIITEINGCISTGKEANVYHASTANGESRAIKIYKTSILVFKDRDKYVSGEFRFRHGYCKGNPRKMVKTWAEKEMRNLIRLNTAEIPCPEPIMLRSHVLVMSFIGKDDMPAPLLKNVQLSESKARELYLQVIQYMRRMYQDARLVHADLSEFNMLYHGGGVYIIDVSQSVEHDHPHALEFLRKDCANVNDFFMRHSVAVMTVRELFEFVTDPSITHENMDAYLSKAMEIASQRTKEERSSQDHVDEEVFKRAYIPRTLNEVKNYERDMDIIMKLKEEDMAMNAQQDNILYQTVTGLKKDLSGVQKVPALLENQVEERTCSDSEDIGSSECSDTDSEEQGDHARPKKHTTDPDIDKKERKKMVKEAQREKRKNKIPKHVKKRKEKTAKTKKGK [RIOK1]
solubility change mitosis (log2) (HeLa Kyoto [1]): 0.0777
solubility in G1/S (log2) (HeLa Kyoto [2]): -0.18
thermal stability score (HeLa Kyoto [3]; [5]): 1.87
thermal stability score (HeLa Kyoto [3]; cell cycle stage: mitosis): 1.28
melting temperature (HeLa Kyoto [4]; cell cycle stage: G1/S): 52.3 °C
melting temperature (HeLa Kyoto [4]; cell cycle stage: mitosis): 54.8 °C

MEADIITNLRCRLKEAEEERLKAAQYGLQLVESQNELQNQLDKCRNEMMTMTESYEQEKYTLQREVELKSRMLESLSCECEAIKQQQKMHLEKLEEQLSRSHGQEVNELKTKIEKLKVELDEARLSEKQLKHQVDHQKELLSCKSEELRVMSERVQESMSSEMLALQIELTEMESMKTTLKEEVNELQYRQEQLELLITNLMRQVDRLKEEKEEREKEAVSYYNALEKARVANQDLQVQLDQALQQALDPNSKGNSLFAEVEDRRAAMERQLISMKVKYQSLKKQNVFNREQMQRMKLQIATLLQMKGSQTEFEQQERLLAMLEQKNGEIKHLLGEIRNLEKFKNLYDSMESKPSVDSGTLEDNTYYTDLLQMKLDNLNKEIESTKGELSIQRMKALFESQRALDIERKLFANERCLQLSESENMKLRAKLDELKLKYEPEETVEVPVLKKRREVLPVDITTAKDACVNNSALGGEVYRLPPQKEETQSCPNSLEDNNLQLEKSVSIYTPVVSLSPHKNLPVDMQLKKEKKCVKLIGVPADAEALSERSGNTPNSPRLAAESKLQTEVKEGKETSSKLEKETCKKLHPILYVSSKSTPETQCPQQ [SPDL1]
solubility change mitosis (log2) (HeLa Kyoto [1]): 0.278
solubility in G1/S (log2) (HeLa Kyoto [2]): 0.268
thermal stability score (HeLa Kyoto [3]; [5]): 0.59
thermal stability score (HeLa Kyoto [3]; cell cycle stage: mitosis): 0.359
melting temperature (HeLa Kyoto [4]; cell cycle stage: G1/S): 47.2 °C
melting temperature (HeLa Kyoto [4]; cell cycle stage: mitosis): 50.1 °C

MEAEGSSAPARAGSGEGSDSAGGATLKAPKHLWRHEQHHQYPLRQPQFRLLHPHHHLPPPPPPSPQPQPQCPLQPPPPPPLPPPPPPPGAARGRYASSGATGRVRHRGYSDTERYLYCRAMDRTSYAVETGHRPGLKKSRMSWPSSFQGLRRFDVDNGTSAGRSPLDPMTSPGSGLILQANFVHSQRRESFLYRSDSDYDLSPKSMSRNSSIASDIHGDDLIVTPFAQVLASLRTVRNNFAALTNLQDRAPSKRSPMCNQPSINKATITEEAYQKLASETLEELDWCLDQLETLQTRHSVSEMASNKFKRMLNRELTHLSEMSRSGNQVSEFISNTFLDKQHEVEIPSPTQKEKEKKKRPMSQISGVKKLMHSSSLTNSSIPRFGVKTEQEDVLAKELEDVNKWGLHVFRIAELSGNRPLTVIMHTIFQERDLLKTFKIPVDTLITYLMTLEDHYHADVAYHNNIHAADVVQSTHVLLSTPALEAVFTDLEILAAIFASAIHDVDHPGVSNQFLINTNSELALMYNDSSVLENHHLAVGFKLLQEENCDIFQNLTKKQRQSLRKMVIDIVLATDMSKHMNLLADLKTMVETKKVTSSGVLLLDNYSDRIQVLQNMVHCADLSNPTKPLQLYRQWTDRIMEEFFRQGDRERERGMEISPMCDKHNASVEKSQVGFIDYIVHPLWETWADLVHPDAQDILDTLEDNREWYQSTIPQSPSPAPDDPEEGRQGQTEKFQFELTLEEDGESDTEKDSGSQVEEDTSCSDSKTLCTQDSESTEIPLDEQVEEEAVGEEEESQPEACVIDDRSPDT [PDE4D]
solubility change mitosis (log2) (HeLa Kyoto [1]): -0.23
solubility in G1/S (log2) (HeLa Kyoto [2]): 0.0456
thermal stability score (HeLa Kyoto [3]; [5]): -2.8
thermal stability score (HeLa Kyoto [3]; cell cycle stage: mitosis): -4.75
melting temperature (HeLa Kyoto [4]; cell cycle stage: G1/S): 53.2 °C
melting temperature (HeLa Kyoto [4]; cell cycle stage: mitosis): 51.1 °C

MEANGLGPQGFPELKNDTFLRAAWGEETDYTPVWCMRQAGRYLPEFRETRAAQDFFSTCRSPEACCELTLQPLRRFPLDAAIIFSDILVVPQALGMEVTMVPGKGPSFPEPLREEQDLERLRDPEVVASELGYVFQAITLTRQRLAGRVPLIGFAGAPWTLMTYMVEGGGSSTMAQAKRWLYQRPQASHQLLRILTDALVPYLVGQVVAGAQALQLFESHAGHLGPQLFNKFALPYIRDVAKQVKARLREAGLAPVPMIIFAKDGHFALEELAQAGYEVVGLDWTVAPKKARECVGKTVTLQGNLDPCALYASEEEIGQLVKQMLDDFGPHRYIANLGHGLYPDMDPEHVGAFVDAVHKHSRLLRQN [UROD]
solubility change mitosis (log2) (HeLa Kyoto [1]): -0.193
solubility in G1/S (log2) (HeLa Kyoto [2]): 0.254
thermal stability score (HeLa Kyoto [3]; [5]): -0.168
thermal stability score (HeLa Kyoto [3]; cell cycle stage: mitosis): -0.608
melting temperature (HeLa Kyoto [4]; cell cycle stage: G1/S): 56.5 °C
melting temperature (HeLa Kyoto [4]; cell cycle stage: mitosis): 56.7 °C

MEAPAAGLFLLLLLGTWAPAPGSASSEAPPLINEDVKRTVDLSSHLAKVTAEVVLAHLGGGSTSRATSFLLALEPELEARLAHLGVQVKGEDEEENNLEVRETKIKGKSGRFFTVKLPVALDPGAKISVIVETVYTHVLHPYPTQITQSEKQFVVFEGNHYFYSPYPTKTQTMRVKLASRNVESYTKLGNPTRSEDLLDYGPFRDVPAYSQDTFKVHYENNSPFLTITSMTRVIEVSHWGNIAVEENVDLKHTGAVLKGPFSRYDYQRQPDSGISSIRSFKTILPAAAQDVYYRDEIGNVSTSHLLILDDSVEMEIRPRFPLFGGWKTHYIVGYNLPSYEYLYNLGDQYALKMRFVDHVFDEQVIDSLTVKIILPEGAKNIEIDSPYEISRAPDELHYTYLDTFGRPVIVAYKKNLVEQHIQDIVVHYTFNKVLMLQEPLLVVAAFYILFFTVIIYVRLDFSITKDPAAEARMKVACITEQVLTLVNKRIGLYRHFDETVNRYKQSRDISTLNSGKKSLETEHKALTSEIALLQSRLKTEGSDLCDRVSEMQKLDAQVKELVLKSAVEAERLVAGKLKKDTYIENEKLISGKRQELVTKIDHILDAL [RPN1]
solubility change mitosis (log2) (HeLa Kyoto [1]): -0.0592
solubility in G1/S (log2) (HeLa Kyoto [2]): 0.0559
thermal stability score (HeLa Kyoto [3]; [5]): 1.85
thermal stability score (HeLa Kyoto [3]; cell cycle stage: mitosis): 2.85
melting temperature (HeLa Kyoto [4]; cell cycle stage: G1/S): 53.2 °C
melting temperature (HeLa Kyoto [4]; cell cycle stage: mitosis): 53.6 °C
